From paper PMC7545998, “A snake toxin as a theranostic agent for the type 2 vasopressin receptor” (Theranostics, 2020)
Read-outs that look alike come from different tables or passages of the source.

Legend:
[1] = in rats; cited from earlier work
From the text: The intrinsic qualities needed to develop a good in vivo contrast agent are high molecular selectivity so as to label only the selected target, a high affinity, so that a low dose of the tracer can be injected, quick blood elimination to reduce background noise and long-term residence in the targeted organ. […] As a peptide, MQ1 is simple to engineer. […] We exemplified this statement by generating the first PET agent specific to V2R and two highly efficient spe ...

[2] = test system: porcine kidney epithelial cells LLC-pk1; experiment: Confocal imaging of endogenous V2R in LLC-pk1 cells; assay type: cell-based; conditions: 1 µM, 30-min pre-incubation
Protocol: In cells endogenously expressing V2R, such as porcine kidney epithelial cells LLC-pk1, labeling of V2R with AFDye-488-MQ1 and Cy5.5-MQ1 (100 nM) was performed with either fresh or PFA-fixed cells (Figures 7A and B). […] In the pathophysiological context, three renal cancer cell lines (CAKI-2, ACHN and A498 [38]) known to express V2R were tested. […] The presence of V2R, at the cell membrane level, fluctuated as a function of cell density and the number of cell divisions, whatever the cell line used. […] To our knowledge, this is the first specific ligand labeling of V2R in non-permeabilized cancer cells.
Freshly dissociated CHO, LLC-PK1 or renal cancer cell lines expressing vasopressin receptors were seeded on 12-mm glass coverslips pre-coated with poly-ornithine, cultured for 48 h before incubation in DMEM, 0.2 mg/mL BSA, 25 mM HEPES, pH 7.4 for 1 h at 12°C or 30 min at 22 °C with fluorescent analogues in the absence or presence of non-fluorescent ligands (30-min pre-incubation). After 3 washes with cold PBS, the cells were finally fixed in 4% PFA overnight at 4 °C and mounted with Mowiol. The fluorescent cells were imaged using a Zeiss LSM510 Meta confocal microscope equipped with a ×63 (NA 1.4) oil immersion objective. For excitation, available laser rays were 488 and 633 nm and emission signals were collected in multitracking mode with appropriate band pass filters. […]

[3] = cited from earlier work
Protocol: Aprotinin and bikunin are two Kunitz peptides. Aprotinin is used clinically in acute pancreatitis, shock syndromes and hyperfibrinolytic hemorrhage. Bikunin is a protease Kunitz inhibitor that inhibits the invasiveness of tumor cells of various histological origins. Aprotinin [54] and bikunin [55] have similar T1/2α of 0.7 and 0.85 h and T1/2β of 7 and 6.4 h, respectively.

[4] = molecular target: T1, Type 2 vasopressin receptor (V2R) (Rattus norvegicus, UniProt Q00788); experiment: [3H]AVP competition radioligand binding
T1 chain: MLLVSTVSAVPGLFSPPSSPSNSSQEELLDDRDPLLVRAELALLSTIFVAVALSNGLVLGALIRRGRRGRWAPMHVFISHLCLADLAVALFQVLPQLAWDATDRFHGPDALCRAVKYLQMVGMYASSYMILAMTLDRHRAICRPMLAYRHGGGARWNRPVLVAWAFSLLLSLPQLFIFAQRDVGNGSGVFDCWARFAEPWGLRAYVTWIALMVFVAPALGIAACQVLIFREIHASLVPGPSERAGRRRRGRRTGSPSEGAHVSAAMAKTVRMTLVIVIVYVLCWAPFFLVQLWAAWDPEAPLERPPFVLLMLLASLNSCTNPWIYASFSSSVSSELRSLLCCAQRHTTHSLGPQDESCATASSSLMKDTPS

Q: With `NC(=O)CC[C@@H]1NC(=O)[C@H](Cc2ccccc2)NC(=O)[C@H](Cc2ccc(O)cc2)NC(=O)[C@@H](N)CSSC[C@@H](C(=O)N2CCC[C@H]2C(=O)N[C@@H](CCCN=C(N)N)C(=O)NCC(N)=O)NC(=O)[C@H](CC(N)=O)NC1=O` [AVP, arginine-vasopressin] as the molecule, how does the T1/2α [1] read?
A: The T1/2α was 0.9 min.

Q: What about the T1/2β [1] of the same molecule?
A: Its T1/2β is 8 min.

Q: With `CCOc1ccc2c(c1)C1(CCC(OCCN3CCOCC3)CC1)C(=O)N2S(=O)(=O)c1ccc(C(=O)NC(C)(C)C)cc1OC` (centres unmarked) [SR121463, reference compound] as the molecule, how does the “effect on labeling by AFDye-488-MQ1 and Cy5.5-MQ1” value [2] read?
A: The value was “inhibited the labeling”.

Q: Which results are given for Aprotinin [reference compound]?
A: T1/2α [3]: 42 min; T1/2β [3]: 420 min

B1: Mambaquaretin (MQ1) (protein)
chain: RPSFCNLPVKPGPCNGFFSAFYYSQKTNKCHSFTYGGCKGNANRFSTIEKCRRTCVG
Q: Which Ki [4] does the source give for B1 here?
A: The Ki was 7.7 nM.

B2: bikunin: protease Kunitz inhibitor that inhibits the invasiveness of tumor cells (protein, UniProt P02760 206-352, looked up)
Inter-alpha-trypsin inhibitor …: AVLPQEEEGSGGGQLVTEVTKKEDSCQLGYSAGPCMGMTSRYFYNGTSMACETFQYGGCMGNGNNFVTEKECLQTCRTVAACNLPIVRGPCRAFIQLWAFDAVKGKCVLFPYGGCQGNGNKFYSEKECREYCGVPGDGDEELLRFSN
modifications: Inter-alpha-trypsin inhibitor light chain
Q: With B2 as the molecule, how does the T1/2α [3] read?
A: The T1/2α was 51 min.

Q: What about the T1/2β [3] of the same molecule?
A: Its T1/2β is 384 min.
